This assay addresses endogenous human CXC chemokine receptor subtype 3 (CXCR3) (human) (UniProt P49682). Put plainly: cell-based or functional assay.
Chain of UniProt P49682 (P49682 whole entry): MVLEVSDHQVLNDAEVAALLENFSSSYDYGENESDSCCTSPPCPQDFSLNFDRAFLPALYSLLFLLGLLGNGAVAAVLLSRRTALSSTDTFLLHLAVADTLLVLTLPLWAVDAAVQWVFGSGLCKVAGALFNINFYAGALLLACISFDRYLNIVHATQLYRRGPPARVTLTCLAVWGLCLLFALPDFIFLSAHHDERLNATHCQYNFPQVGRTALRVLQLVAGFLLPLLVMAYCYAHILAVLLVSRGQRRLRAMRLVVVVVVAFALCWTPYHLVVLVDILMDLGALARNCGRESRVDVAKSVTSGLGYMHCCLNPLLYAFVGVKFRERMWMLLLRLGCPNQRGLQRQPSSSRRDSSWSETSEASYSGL

“monokine inducible γ-interferon (Mig) (from UniProt Q07325 23-125) (ligand)”: the EC50, pigment aggregation in pre-dispersed (MSH-treated) melanophores transfected with the receptor came to 290 pM.

In turn, “γ-interferon inducible protein-10 (IP-10) (from UniProt P02778 22-98) (ligand)” displayed an EC50, pigment aggregation in pre-dispersed (MSH-treated) melanophores transfected with the receptor of 150 pM.

The values are drawn from patent US20070160987A1.
